For one substance, percent of NKL cells forming conjugates results are on record in publication PMC3001952.

The test deals with single chain trimer version of HLA-Cw6, normal length. Kind of test: cell-cell conjugate formation by flow cytometry; PKH26-labelled NKL cells (or KIR2DL1-expressing NKL cells) mixed with equal numbers of PKH67-labelled P815 transfectants, 30 min, fixed with 1% paraformaldehyde; percentage of NKL cells forming conjugates. For orientation: A flow cytometer gives signals particle by particle.

As for “KIR2DL1-CFP on NKL cells (from UniProt P43626 22-348) (receptor)”, the percent of NKL cells forming conjugates was > 50%.
